Earlier results as cited in article PMC8727504.

Biological target: sMMOH (Methylosinus trichosporium) (UniProt P27353)
Assay: competition

## MMOB (from UniProt P27356)
  Kd: < 100 nM
